Five substances from patent US20250296986A1 can be followed below.

Assay [1] concerns the target human FcγRIIb (human) (UniProt P31994). Description: compared with fucosylated wild-type human IgG1; MSD per FIGS. 10A-10C.
For assay [2], the target named is human C1q (human) (UniProt P02745). Description: C1q binding assay (FIG. 15: antibody Fc captured on Octet sensor, human C1q in solution). Background: BLI is a label-free optical method that tracks binding on a fibre tip over time.
Assay [3] addresses human FcγRIIa (R131 allele) (human) (UniProt P12318). Description: compared with fucosylated wild-type human IgG1; MSD per FIGS. 10A-10C.
In assay [4] the target is human FcγRIIa (H131 allele) (human) (UniProt P12318). The description is as above.
Sequence of human FcγRIIa (H131 allele) (human) (P12318 34-218 limits assumed): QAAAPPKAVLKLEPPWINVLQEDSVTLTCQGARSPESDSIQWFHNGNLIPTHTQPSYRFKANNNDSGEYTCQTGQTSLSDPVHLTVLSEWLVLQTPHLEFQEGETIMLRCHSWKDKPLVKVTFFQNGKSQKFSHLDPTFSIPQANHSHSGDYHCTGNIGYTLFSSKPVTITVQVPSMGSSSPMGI

Sequence of human FcγRIIb (human) (P31994 43-217 limits assumed): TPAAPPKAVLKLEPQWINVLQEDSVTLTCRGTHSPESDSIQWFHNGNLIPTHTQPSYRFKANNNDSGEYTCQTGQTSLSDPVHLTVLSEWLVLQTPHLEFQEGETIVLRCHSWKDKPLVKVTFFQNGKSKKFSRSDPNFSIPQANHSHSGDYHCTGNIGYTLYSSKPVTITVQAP
Sequence of human FcγRIIa (R131 allele) (human) (P12318 34-218 H167R limits assumed): as the sequence (P12318 34-218 limits assumed) above, with H134R counted along it
Sequence of human C1q (human) (P02745 23-245 limits assumed, chain 1 of 3): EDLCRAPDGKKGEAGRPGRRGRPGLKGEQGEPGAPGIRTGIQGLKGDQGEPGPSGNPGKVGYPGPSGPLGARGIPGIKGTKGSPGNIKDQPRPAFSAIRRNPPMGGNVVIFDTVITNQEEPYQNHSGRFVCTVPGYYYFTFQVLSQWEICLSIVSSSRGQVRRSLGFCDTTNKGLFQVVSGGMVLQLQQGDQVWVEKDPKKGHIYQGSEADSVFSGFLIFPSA
Sequence of human C1q (human) (P02746 28-253 limits assumed, chain 2 of 3, further chain): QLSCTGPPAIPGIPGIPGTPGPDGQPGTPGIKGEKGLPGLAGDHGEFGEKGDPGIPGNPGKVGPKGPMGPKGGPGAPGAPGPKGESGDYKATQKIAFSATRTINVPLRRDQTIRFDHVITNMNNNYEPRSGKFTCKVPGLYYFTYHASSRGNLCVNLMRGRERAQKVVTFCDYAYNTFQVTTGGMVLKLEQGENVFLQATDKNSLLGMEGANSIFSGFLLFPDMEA
Sequence of human C1q (human) (P02747 29-245 limits assumed, chain 3 of 3, further chain): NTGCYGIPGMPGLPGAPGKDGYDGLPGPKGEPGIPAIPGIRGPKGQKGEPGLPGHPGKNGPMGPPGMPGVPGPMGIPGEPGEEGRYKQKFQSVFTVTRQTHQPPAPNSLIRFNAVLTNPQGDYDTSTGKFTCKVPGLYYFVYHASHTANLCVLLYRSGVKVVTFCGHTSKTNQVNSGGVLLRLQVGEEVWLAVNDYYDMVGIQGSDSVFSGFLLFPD

As for G236A_R292P (antibody), in assay [1], the fold-change in binding vs fucosylated wild-type human IgG1 was less than 0.5 fold.
As for “afucosylated Fc variant antibodies bearing the G236A ("GA") mutation (antibody)”, the C1q binding relative to reference IgG1 antibody bearing M428L and N434S mutations only in assay [2] was 0.3 fold (×).
Regarding G236S_G420V_G446E_L309T (antibody), the fold-change in binding vs fucosylated wild-type human IgG1 in assay [1] is less than 0.5 fold.
As to G236A_R292P_Y300L (antibody), the fold-change in binding vs fucosylated wild-type human IgG1 was greater than 2.7 fold in assay [3] and greater than 14 fold in assay [4].
The corresponding values for G236A_Y300L (antibody) are greater than 4 fold and greater than 18 fold.
